Patent US20240116985A1 (published 2024)
Each block holds one binder with its values, some of them ahead of it. Starred links: 1 amine or outer side, 2 acyl side, 3 side chain; linkers in the order of their positions; H or OH if unused. Positions of bridges follow the written chain, without caps; N, C: chain ends. Non-standard residues stand in square brackets, D forms with d. Primed or numbered codes have the meaning given here. (CH2CMe2CO2H)TriAzDab = (S)-2-amino-4-(4-(2-carboxy-2-methylpropyl)-1H-1,2,3-triazol-1-yl)butanoic acid, CC(C)(Cc1cn(CC[C@H](N[*:1])C(=O)[*:2])nn1)C(=O)[*:3]; B5(11) = 2,2-bis(4-pentenyl)glycine = 2-amino-2-(pent-4-en-1-yl)hept-6-enoic acid (stitching residue, bears both staples), C=CCCCC(CCCC=C)(N[*:1])C(=O)[*:2]; PyrS2″ = (S)-3-amino-1-((pent-4-en-1-yloxy)carbonyl)pyrrolidine-3-carboxylic acid (stapling residue), C=CCCCOC(=O)N1CC[C@@](N[*:1])(C(=O)[*:2])C1; (CH2CH2CO2H)TriAzDab = (S)-2-amino-4-(4-(2-carboxyethyl)-1H-1,2,3-triazol-1-yl)butanoic acid, O=C([C@H](CCn1cc(CCC(=O)[*:3])nn1)N[*:1])[*:2]; B5(16) = 2-amino-2-(pent-4-en-1-yl)hept-6-enoic acid = 2,2-bis(4-pentenyl)glycine (stitching residue), C=CCCCC(CCCC=C)(N[*:1])C(=O)[*:2]; (CH2CO2H)TriAzDab = (S)-2-amino-4-(4-(carboxymethyl)-1H-1,2,3-triazol-1-yl)butanoic acid, O=C([C@H](CCn1cc(CC(=O)[*:3])nn1)N[*:1])[*:2]; B5(4) = 2,2-bis(4-pentenyl)glycine = 2-amino-2-(pent-4-en-1-yl)hept-6-enoic acid (stitching residue), C=CCCCC(CCCC=C)(N[*:1])C(=O)[*:2]; B5(5) = 2,2-bis(4-pentenyl)glycine, 2-amino-2-(pent-4-en-1-yl)hept-6-enoic acid (stitching residue), C=CCCCC(CCCC=C)(N[*:1])C(=O)[*:2]; B5(9) = 2-amino-2-(pent-4-en-1-yl)hept-6-enoic acid (2,2-bis(4-pentenyl)glycine), C=CCCCC(CCCC=C)(N[*:1])C(=O)[*:2]; d(βAsp) = O=C(O)[C@@H](CC(=O)[*:2])N[*:1]; Phe(3-Cl) = N[C@@H](Cc1cccc(Cl)c1)C(=O)O; Phe(4-Cl) = N[C@@H](Cc1ccc(Cl)cc1)C(=O)O; Phe(4-NH2) = Nc1ccc(C[C@H](N)C(=O)O)cc1; Ala(2-furyl) = N[C@@H](Cc1ccco1)C(=O)O; βAsp = O=C(O)[C@H](CC(=O)[*:2])N[*:1]; Bta = N[C@@H](Cc1csc2ccccc12)C(=O)O; αAllylPro = C=CC[C@@]1(C(=O)O)CCCN1; tBuAla = CC(C)(C)C[C@H](N)C(=O)O; 3Thi = N[C@@H](Cc1ccsc1)C(=O)O; S8 = C=CCCCCCC[C@](C)(N)C(=O)O

Columns and labels:
[1] = target: T1, full-length beta-Catenin (Uniprot ID P35222) (Homo sapiens (Human), UniProt P35222 2-781); experiment: fluorescence polarization competition, full-length beta-catenin with 5FAM-TCF4(10-53) probe as competitor
T1 construct: 'mature' is the nearest allowed form; also called bCat; B-Catenin
T1 sequence: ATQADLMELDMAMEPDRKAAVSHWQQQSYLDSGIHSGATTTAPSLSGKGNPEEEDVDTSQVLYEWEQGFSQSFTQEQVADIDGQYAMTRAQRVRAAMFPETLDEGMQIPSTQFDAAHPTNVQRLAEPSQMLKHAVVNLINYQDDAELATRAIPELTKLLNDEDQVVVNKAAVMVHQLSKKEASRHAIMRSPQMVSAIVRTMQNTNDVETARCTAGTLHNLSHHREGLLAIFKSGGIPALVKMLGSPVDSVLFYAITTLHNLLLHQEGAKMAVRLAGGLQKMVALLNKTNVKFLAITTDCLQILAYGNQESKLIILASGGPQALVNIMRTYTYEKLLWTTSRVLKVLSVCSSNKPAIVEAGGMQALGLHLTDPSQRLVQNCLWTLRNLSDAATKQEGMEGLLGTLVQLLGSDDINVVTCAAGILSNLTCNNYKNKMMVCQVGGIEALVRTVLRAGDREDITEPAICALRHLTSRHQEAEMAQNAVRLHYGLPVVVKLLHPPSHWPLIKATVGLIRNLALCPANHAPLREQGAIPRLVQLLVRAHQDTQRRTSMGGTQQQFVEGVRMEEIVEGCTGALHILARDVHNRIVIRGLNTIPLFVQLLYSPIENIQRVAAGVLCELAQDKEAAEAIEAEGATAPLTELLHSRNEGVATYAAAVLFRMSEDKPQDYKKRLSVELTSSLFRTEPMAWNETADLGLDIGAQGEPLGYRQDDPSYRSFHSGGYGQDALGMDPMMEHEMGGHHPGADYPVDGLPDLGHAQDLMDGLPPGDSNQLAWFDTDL
Protocol: (§1) The plate was incubated protected from light for 60 minutes at 20° C. prior to read. Reads were performed on a CLARIOstar plate reader (BMG Labtech) in duplicate, and data were fitted to a 1:1 binding model with hill slope using an in-house script. All provided concentrations are final concentrations.

[2] = target: T2, full-length beta-Catenin (Uniprot ID P35222) (Homo sapiens (Human), UniProt P35222 1-781); experiment: FP competition vs 5FAM-TCF4(10-53) probe on full-length beta-catenin
T2 construct: the AlphaScreen used a Histidine (Nickel Chelate) detection kit, so a His tag is likely but not described; also called B-Catenin; bCat
T2 sequence: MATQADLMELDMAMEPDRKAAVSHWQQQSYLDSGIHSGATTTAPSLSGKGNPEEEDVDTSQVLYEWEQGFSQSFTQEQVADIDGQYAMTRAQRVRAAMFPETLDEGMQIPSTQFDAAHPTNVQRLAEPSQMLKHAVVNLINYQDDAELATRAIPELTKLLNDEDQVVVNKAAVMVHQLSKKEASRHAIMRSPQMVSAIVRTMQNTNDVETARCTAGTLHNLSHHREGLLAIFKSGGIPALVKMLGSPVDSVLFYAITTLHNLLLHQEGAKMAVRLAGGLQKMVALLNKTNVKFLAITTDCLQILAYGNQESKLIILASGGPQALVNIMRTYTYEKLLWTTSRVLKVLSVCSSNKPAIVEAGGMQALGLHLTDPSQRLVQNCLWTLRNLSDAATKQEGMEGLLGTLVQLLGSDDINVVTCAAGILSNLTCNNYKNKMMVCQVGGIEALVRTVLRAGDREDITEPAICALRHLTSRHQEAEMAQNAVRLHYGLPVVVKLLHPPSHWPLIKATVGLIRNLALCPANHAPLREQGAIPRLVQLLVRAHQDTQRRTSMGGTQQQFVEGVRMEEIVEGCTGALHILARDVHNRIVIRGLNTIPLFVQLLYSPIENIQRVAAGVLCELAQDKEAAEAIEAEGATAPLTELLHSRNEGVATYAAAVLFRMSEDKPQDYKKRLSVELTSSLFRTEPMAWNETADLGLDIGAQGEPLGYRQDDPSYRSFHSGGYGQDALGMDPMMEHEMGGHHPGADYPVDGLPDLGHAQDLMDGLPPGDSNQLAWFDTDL
Protocol: as §1

[3] = target: T3, Bcat-Halo (UniProt P35222 1-781); experiment: cell-based or functional assay
T3 sequence (looked up): T2 sequence

EC50 [1]: 5 µM
B1: I-673 (peptide)
peptide: Ac-[αAllylPro]DI[B5(9)][βAsp]EAAFQ[S8]F[Bta]Q-NH2
modifications: staple 1-4, 4-11
notes: Stapled peptide composition

EC50 [2]: 4.2 µM
B2: I-307 (peptide)
peptide: Ac-[αAllylPro]DA[B5(4)]DDAA[Phe(3-Cl)]V[S8]FWQ-NH2
modifications: staple 1-4, 4-11; not fully specified; printed as Ac-PL3-Asp-Ala-B5-Asp-Asp-Ala-Ala-3C1F-Val-S8-Phe-Trp-Gln-NH2
notes: Ac-PL3-Asp-Ala-B5-Asp-Asp-Ala-Ala-3C1F-Val-S8-Phe-Trp-Gln-NH2; stapled peptide composition

EC50 [1]: 5 µM
B3: I-674 (peptide)
peptide: Ac-[αAllylPro]DI[B5(5)][d(βAsp)]EAAFQ[S8]F[Bta]Q-NH2
modifications: staple 1-4, 4-11
notes: Stapled peptide composition

EC50 [2]: 4.72 µM
B4: I-327 (peptide)
peptide: Ac-[αAllylPro]DA[B5(4)]DDAA[Ala(2-furyl)]V[S8]FWQ-NH2
modifications: staple 1-4, 4-11; not fully specified; printed as Ac-PL3-Asp-Ala-B5-Asp-Asp-Ala-Ala-2FurA-Val-S8-Phe-Trp-Gln-NH2
notes: Ac-PL3-Asp-Ala-B5-Asp-Asp-Ala-Ala-2FurA-Val-S8-Phe-Trp-Gln-NH2; stapled peptide composition

NanoBRET Abs IC50 [3]: 12.3 µM
B5: I-2077 (peptide)
peptide: Ac-[αAllylPro]D[tBuAla][B5(4)]D[(CH2CMe2CO2H)TriAzDab]AAFL[PyrS2″][3Thi][Bta]Q-NH2
modifications: staple 1-4, 4-11

EC50 [2]: 5 µM
B6: I-308 (peptide)
peptide: Ac-[αAllylPro]DA[B5(4)]DDAA[Phe(4-Cl)]V[S8]FWQ-NH2
modifications: staple 1-4, 4-11; not fully specified; printed as Ac-PL3-Asp-Ala-B5-Asp-Asp-Ala-Ala-4C1F-Val-S8-Phe-Trp-Gln-NH2
notes: Ac-PL3-Asp-Ala-B5-Asp-Asp-Ala-Ala-4C1F-Val-S8-Phe-Trp-Gln-NH2; stapled peptide composition

EC50 [1]: 0.451 µM
B7: I-669 (peptide)
peptide: Ac-[αAllylPro][d(βAsp)]I[B5(9)]DEAAFQ[S8]F[Bta]Q-NH2
modifications: staple 1-4, 4-11
notes: Stapled peptide composition; later-eluting HPLC peak (staple isomer)

EC50 [2]: 1.91 µM
B8: I-328 (peptide)
peptide: Ac-[αAllylPro]DA[B5(4)]DDAA[Ala(2-furyl)]V[S8]FWQ-NH2
modifications: staple 1-4, 4-11; not fully specified; printed as Ac-PL3-Asp-Ala-B5-Asp-Asp-Ala-Ala-2FurA-Val-S8-Phe-Trp-Gln-NH2
notes: as for B4

EC50 [2]: 3.47 µM
B9: I-323 (peptide)
peptide: Ac-[αAllylPro]DA[B5(11)]DDAA[Phe(4-NH2)]V[S8]FWQ-NH2
modifications: staple 1-4, 4-11; not fully specified; printed as Ac-PL3-Asp-Ala-B5-Asp-Asp-Ala-Ala-4AmPhe-Val-S8-Phe-Trp-Gln-NH2
notes: Ac-PL3-Asp-Ala-B5-Asp-Asp-Ala-Ala-4AmPhe-Val-S8-Phe-Trp-Gln-NH2; stapled peptide composition

NanoBRET Abs IC50 [3]: 11.7 µM
B10: I-2078 (peptide)
peptide: Ac-[αAllylPro]D[tBuAla][B5(4)]D[(CH2CO2H)TriAzDab]AAFL[PyrS2″][3Thi][Bta]Q-NH2
modifications: staple 1-4, 4-11

NanoBRET Abs IC50 [3]: 14.1 µM
B11: I-2076 (peptide)
peptide: Ac-[αAllylPro]D[tBuAla][B5(4)]D[(CH2CH2CO2H)TriAzDab]AAFL[PyrS2″][3Thi][Bta]Q-NH2
modifications: staple 1-4, 4-11

EC50 [1]: 0.675 µM
B12: I-668 (peptide)
peptide: Ac-[αAllylPro][d(βAsp)]I[B5(9)]DEAAFQ[S8]F[Bta]Q-NH2
modifications: staple 1-4, 4-11
notes: Stapled peptide composition; earlier-eluting HPLC peak (staple isomer)

EC50 [1]: 0.183 µM
B13: I-655 (peptide)
peptide: Ac-[αAllylPro]DI[B5(16)]DEWAFQ[S8]F[Bta]Q-NH2
modifications: staple 1-4, 4-11
notes: Stapled peptide composition

EC50 [1]: 0.395 µM
B14: I-645 (peptide)
peptide: Ac-[αAllylPro]DI[B5(9)]DEAAFQ[S8]F[Bta]V-NH2
modifications: staple 1-4, 4-11
notes: Stapled peptide composition

EC50 [1]: 0.996 µM
B15: I-664 (peptide)
peptide: Ac-[αAllylPro]DI[B5(9)]DEAWFQ[S8]F[Bta]Q-NH2
modifications: staple 1-4, 4-11
notes: as for B12
